Patent US20250032588A1 (Eli Lilly, published 2025)
Residue numbers refer to the chain shown, from its start. One block for each binder: values may come before it.

Biological target: T1, human insulin receptor isoform A (human, UniProt P06213-2 28-1370)
T1 construct: whole, on cells; Tested as P1 membrane preparations of the over-expressing cells; also called hIR-A
Experiment: competitive radio-ligand binding, [125I]-insulin, membranes of 293EBNA cells over-expressing hIR-A
Experimental: IC₅₀ values are determined from 4-parameter logistic non-linear regression analysis (XLFit version 4.0, IDBS). If necessary, curve top or bottom parameters are set to 100 or 0, respectively.
Reported values for Kᵢ are shown as geometric mean±the standard error of the mean (SEM), with the number of replicate determinations indicated by “n” (Table 1).

Ki: 24.9 nM
B1: Example 1 fusion protein (SEQ ID NO:12) (Fc fusion)
chain: FVNQHLCGSHLVEALELVCGERGFHYGGGGGGSGGGGGIVEQCCTSTCSLDQLENYCGGGGGQGGGGQGGGGQGGGGGECPPCPAPPVAGPSVFLFPPKPKDTLMISRTPEVTCVVVDVSHEDPEVQFNWYVDGVEVHNAKTKPREEQFNSTFRVVSVLTVVHQDWLNGKEYKCKVSNKGLPAPIEKTISKTKGQPREPQVYTLPPSREEMTKNQVSLTCLVKGFYPSDIAVEWESNGQPENNYKTTPPMLDSDGSFFLYSKLTVDKSRWQQGNVFSCSVMHEALHNHYTQKSLSLSPG

Ki: 3.74 nM
B2: Example 9 fusion protein (SEQ ID NO:23) (Fc fusion)
chain: FVNQHLCGSHLVEALELVCGERGFFYTEETGGGGGGGIVEQCCTSICSLYQLENYCGGGGGSGGGGSGGGGSGGGGSECPPCPAPPVAGPSVFLFPPKPKDTLMISRTPEVTCVVVDVSHEDPEVQFNWYVDGVEVHNAKTKPREEQFNSTFRVVSVLTVVHQDWLNGKEYKCKVSNKGLPAPIEKTISKTKGQPREPQVYTLPPSREEMTKNQVSLTCLVKGFYPSDIAVEWESNGQPENNYKTTPPMLDSDGSFFLYSKLTVDKSRWQQGNVFSCSVMHEALHNHYTQKSLSLSPG

Ki: 10.1 nM
B3: Example 3 fusion protein (SEQ ID NO:17) (Fc fusion)
chain: FVNQHLCGSHLVEALELVCGERGFHYGGGGGGSGGGGGIVEQCCTSICSLDQLENYCGGGGGQGGGGQGGGGQGGGGQGGPCPPCPAPEAAGGPSVFLFPPKPKDTLMISRTPEVTCVVVDVSQEDPEVQFNWYVDGVEVHNAKTKPREEQFNSTYRVVSVLTVLHQDWLNGKEYKCKVSNKGLPSSIEKTISKAKGQPREPQVYTLPPSQEEMTKNQVSLTCLVKGFYPSDIAVEWESNGQPENNYKTTPPVLDSDGSFFLYSRLTVDKSRWQEGNVFSCSVMHEALHNHYTQKSLSLSLG

Ki: 35.6 nM
B4: Example 5 fusion protein (SEQ ID NO:19) (Fc fusion)
chain: B3 chain with I47T
